Source: paper doi:10.1101/2023.08.11.552962
Each block holds one substance with its values, some of them ahead of it.

Tests used:
[1] = molecular target: MacMCM, minichromosome maintenance protein from Mancarchaeum acidiphilum (Mancarchaeum acidiphilum); assay: SEC
[2] = molecular target: MacMCM^E391Q, Walker B mutant of MacMCM (Mancarchaeum acidiphilum); assay: SEC
[3] = molecular target: MacMCM^ΔWHD.E391Q, MacMCM without the winged helix domain and with the Walker B mutation E391Q (Mancarchaeum acidiphilum); assay: crystal structure
[4] = molecular target: MacMCM^ΔWHD.E391Q, MacMCM without the winged helix domain and with the Walker B mutation E391Q (Mancarchaeum acidiphilum); assay: SEC

stoichiometry N [1]: 6
Substance: MacMCM, minichromosome maintenance protein from Mancarchaeum acidiphilum (enzyme)

stoichiometry N [2]: 6
Substance: MacMCM^E391Q, Walker B mutant of MacMCM (enzyme)

stoichiometry N [3]: 6
stoichiometry N [4]: 6
Substance: MacMCM^ΔWHD.E391Q, MacMCM without the winged helix domain and with the Walker B mutation E391Q (domain or fragment)
